Experimental data as given in paper PMC6212785, “RGG-box in hnRNPA1 specifically recognizes the telomere G-quadruplex DNA and enhances the G-quadruplex unfolding ability of UP1 domain”.

Tests used:
[1] = target: T1, UP1 (UniProt P09651-2 1-196); test: ITC; 100 mM KCl; ITC/CD: 20 mM Tris-Cl pH 8, 100 mM NaCl or KCl, 25 C; NMR: 10 mM sodium or potassium phosphate pH 6.5, 100 mM NaCl or KCl, 298 K; details: protein: recombinant, tags: C-terminal 6xHis (pET28a), chain copies: 2
[2] = target: T2, UP1+RGG (UniProt P09651-2 1-249); test: as above; details: protein: recombinant, tags: C-terminal 6xHis (pET28a), chain copies: 2
T2 sequence (P09651 1-249): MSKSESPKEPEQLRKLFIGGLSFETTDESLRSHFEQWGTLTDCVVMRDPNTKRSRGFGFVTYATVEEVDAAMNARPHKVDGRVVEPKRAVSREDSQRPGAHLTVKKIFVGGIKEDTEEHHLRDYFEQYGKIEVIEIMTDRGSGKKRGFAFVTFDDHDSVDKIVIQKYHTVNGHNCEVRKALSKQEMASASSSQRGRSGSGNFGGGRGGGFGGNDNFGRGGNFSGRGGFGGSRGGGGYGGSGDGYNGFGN

[3] = target: T1, UP1; test: ITC; 100 mM NaCl; ITC/CD: 20 mM Tris-Cl pH 8, 100 mM NaCl or KCl, 25 C; NMR: 10 mM sodium or potassium phosphate pH 6.5, 100 mM NaCl or KCl, 298 K; details: protein: recombinant, tags: C-terminal 6xHis (pET28a), chain copies: 2
[4] = target: T2, UP1+RGG; test: as above; details: protein: recombinant, tags: C-terminal 6xHis (pET28a), chain copies: 2
[5] = target: RGG-box (UniProt P09651-2 197-249); test: NMR 15N-1H HSQC titration; apparent Kd, global fit of 14 residues (individual 151-433 uM); ITC/CD: 20 mM Tris-Cl pH 8, 100 mM NaCl or KCl, 25 C; NMR: 10 mM sodium or potassium phosphate pH 6.5, 100 mM NaCl or KCl, 298 K; details: protein: recombinant; tags: N-terminal GST removed by TEV; intramolecular G4 (monomeric)
Chain of RGG-box (P09651 197-249): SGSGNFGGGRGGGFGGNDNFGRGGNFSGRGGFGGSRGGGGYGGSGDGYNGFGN

T1 sequence (P09651 1-196): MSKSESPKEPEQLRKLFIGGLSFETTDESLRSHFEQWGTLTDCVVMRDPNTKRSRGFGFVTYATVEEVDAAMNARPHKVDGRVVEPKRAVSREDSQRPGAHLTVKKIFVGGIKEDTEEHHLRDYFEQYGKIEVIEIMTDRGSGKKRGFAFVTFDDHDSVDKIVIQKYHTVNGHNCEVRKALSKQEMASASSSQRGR

Binder	Kd ([1]; single strand) [µM]	Kd ([2]; single strand) [µM]	Kd ([3]; single strand) [µM]	Kd ([4]; single strand) [µM]	Kd ([1]; intramolecular G4 (monomeric)) [µM]	Kd ([2]; intramolecular G4 (monomeric)) [µM]	Kd ([3]; intramolecular G4 (monomeric)) [µM]	Kd ([4]; intramolecular G4 (monomeric)) [µM]	Kd [5] [µM]
AGGATTAGGATTAGGATTAGGA (ssDNA) [Tel22ss]	1.23 ± 0.14	1.11 ± 0.15	1.2 ± 0.31	1.04 ± 0.15					
AGGGTTAGGGTTAGGGTTAGGG (structured_DNA) [Tel22 G-quadruplex]					5.62 ± 1.09	4.85 ± 0.6	0.71 ± 0.14	0.6 ± 0.13	349 ± 35
